For test [1], the target named is T1, human FAP on HT1080 cells (HT1080-huFAP, stable transfectants) (UniProt Q12884 1-760). Briefly: FACS. A general note: A flow cytometer gives signals particle by particle.
The target in test [2] is T2, huFAP fusion protein (UniProt Q12884 27-760). The test is described as follows: ELISA. In general terms: ELISA stands for enzyme-linked immunosorbent assay.
In test [3] the target is T1, human FAP on HT1080 cells …. The test is described as follows: FACS; DAR 3.48.
The target in test [4] is T2, huFAP fusion protein. The test is described as follows: ELISA; DAR 3.48.

T2 sequence (Q12884 27-760): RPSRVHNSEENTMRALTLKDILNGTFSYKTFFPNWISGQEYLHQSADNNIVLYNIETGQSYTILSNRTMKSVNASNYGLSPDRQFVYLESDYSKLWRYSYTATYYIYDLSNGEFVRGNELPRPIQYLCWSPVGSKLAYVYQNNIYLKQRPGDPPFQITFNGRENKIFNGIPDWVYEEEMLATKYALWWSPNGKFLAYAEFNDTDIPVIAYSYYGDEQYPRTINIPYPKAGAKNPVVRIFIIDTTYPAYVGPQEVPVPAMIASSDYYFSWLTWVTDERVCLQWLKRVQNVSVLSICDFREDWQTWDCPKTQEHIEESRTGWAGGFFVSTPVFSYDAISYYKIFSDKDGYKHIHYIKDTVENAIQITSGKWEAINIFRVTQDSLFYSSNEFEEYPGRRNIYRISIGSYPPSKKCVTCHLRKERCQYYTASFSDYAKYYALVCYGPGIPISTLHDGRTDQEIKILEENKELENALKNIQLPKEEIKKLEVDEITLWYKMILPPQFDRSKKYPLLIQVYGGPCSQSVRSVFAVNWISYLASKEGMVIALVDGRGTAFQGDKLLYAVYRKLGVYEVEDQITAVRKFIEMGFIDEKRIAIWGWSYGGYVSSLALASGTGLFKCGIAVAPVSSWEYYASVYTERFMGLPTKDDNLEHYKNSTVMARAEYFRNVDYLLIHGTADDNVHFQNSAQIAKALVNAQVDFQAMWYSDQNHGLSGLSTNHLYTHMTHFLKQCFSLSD
T1 sequence (Q12884 whole entry, the tested form may be a part): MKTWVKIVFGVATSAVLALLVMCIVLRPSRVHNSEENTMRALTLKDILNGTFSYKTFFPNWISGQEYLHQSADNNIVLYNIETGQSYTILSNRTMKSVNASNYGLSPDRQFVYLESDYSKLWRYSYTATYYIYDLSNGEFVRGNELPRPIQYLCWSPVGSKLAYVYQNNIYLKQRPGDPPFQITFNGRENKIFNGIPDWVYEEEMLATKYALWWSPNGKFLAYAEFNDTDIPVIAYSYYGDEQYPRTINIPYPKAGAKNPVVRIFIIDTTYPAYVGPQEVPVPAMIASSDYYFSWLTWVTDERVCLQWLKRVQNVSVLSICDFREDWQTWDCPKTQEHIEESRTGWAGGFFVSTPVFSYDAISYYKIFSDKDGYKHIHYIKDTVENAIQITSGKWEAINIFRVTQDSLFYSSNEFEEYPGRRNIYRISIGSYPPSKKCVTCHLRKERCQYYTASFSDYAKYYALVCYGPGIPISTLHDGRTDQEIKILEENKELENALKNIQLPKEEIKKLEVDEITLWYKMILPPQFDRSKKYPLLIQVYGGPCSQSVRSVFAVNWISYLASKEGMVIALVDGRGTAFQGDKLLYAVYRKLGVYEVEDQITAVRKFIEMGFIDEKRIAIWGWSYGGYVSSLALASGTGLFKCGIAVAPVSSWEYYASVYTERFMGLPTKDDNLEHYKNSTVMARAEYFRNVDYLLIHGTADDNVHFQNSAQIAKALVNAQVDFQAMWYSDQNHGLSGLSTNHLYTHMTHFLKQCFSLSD

B1: humanized anti-FAP IgG1 hu36 (hu36-IgG1) (antibody, V domains shown)
VH: QVQLVQSGAEVKKPGASVKVSCKASGYTFTENIIHWVRQAPGQGLEWMGWFHPGSGSIKYNEKFKDRVTMTADTSTSTVYMELSSLRSEDTAVYYCARHGGTGRGAMDYWGQGTLVTVSS
VL: DIQMTQSPSSLSASVGDRVTITCRASKSVSTSAYSYMHWYQQKPGKAPKLLIYLASNLESGVPSRFSGSGSGTDFTLTISSLQPEDFATYYCQHSRELPYTFGQGTKLEIKR
What is called EC50 is the concentration giving half of the maximal effect. For B1, the EC50 in test [1] was determined as 0.067 nM; with huFAP fusion protein [2] it was 0.21 nM.

B2: Anti-FAP hu36:TAM471 ADC (ADC-471) (antibody, V domains shown)
VH: QVQLVQSGAEVKKPGASVKVSCKASGYTFTENIIHWVRQAPGQGLEWMGWFHPGSGSIKYNEKFKDRVTMTADTSTSTVYMELSSLRSEDTAVYYCARHGGTGRGAMDYWGQGTLVTVSS
VL: DIQMTQSPSSLSASVGDRVTITCRASKSVSTSAYSYMHWYQQKPGKAPKLLIYLASNLESGVPSRFSGSGSGTDFTLTISSLQPEDFATYYCQHSRELPYTFGQGTKLEIKR
modifications: cytolysin TAM471 through maleimidocaproyl-vcPABA linker on cysteine residues (not site-specific); cytolysin TAM471 through maleimidocaproyl-vcPABA linker on cysteine residues (not site-specific), DAR 3.48 for the whole antibody
B2: the values for the 50% effective concentration (EC50) (in test [3]; with huFAP fusion protein [4]) were 0.081 nM and 0.153 nM, respectively.

(Values after patent publication US20170007716A1 (published 2017).)
